Blank lines part the entries; values can stand above or below the binder they belong to.
What was measured:
human CD28 [1] = molecular target: T1, human CD28 (human, UniProt P10747 19-220); assay: flow cytometry, bivalent mAb on Jurkat cells
T1 construct: whole, on cells; also called huCD28
Experimental: (§1) Cells were harvested, checked for viability, and counted. 200'000 cells were incubated for 15 minutes at 4° C. with increasing concentrations of the antibodies diluted in FACS buffer (PBS 2% BSA). Cells were washed twice with cold FACS buffer and re-incubated for further 15 minutes at 4° C. with a suitable anti-human IgG secondary antibody. Cells were washed twice with cold FACS buffer and resuspended in 150 μl FACS buffer with a compatible viability marker. Binding of antibodies to living cells was measured by flow cytometry using a Cytoflex Platform (Beckman Coulter). Data was analyzed with FlowJo™ v10 software (BD Life Sciences) and dose-response binding curves were drawn using GraphPad Prism 9 software. AD84 GPC3 arm of the GPC3×CD3 bispecific antibody and P44, P30, P111 GPC3 arms of the GPC3×CD28 bispecific antibodies of this invention were selected from this screening process based on their specificity and binding signal intensity to GPC3 positive cells.
The binding capacity of the anti-CD28 antibody arms of the invention, tested as bivalent mAbs, was assessed using Jurkat cells (Jurkat Clone E6-1, ATCC TIB 152) by flow cytometry. The flow cytometry methodology was the same as the one described above. AI3 and AI10 CD28 binding arms were selected from this screening process based on their specificity and binding signal intensity to CD28 positive cells.

human CD28 [2] = molecular target: T1, human CD28; assay: flow cytometry on Jurkat cells
Experimental: as §1
Examples of cells that can be used include GPC3 positive cell lines such as the gastric carcinoma cell line FU97 (JCRB1074), CD28 positive cell lines such as the leukemic Jurkat T cells as well as GPC3/CD28 double negative cell line, such as the leukemic TIB-153 cells. Cell staining and binding assessment was performed as described in Example 6. An irrelevant hIgG1 mAb served as negative isotype control and was used in all shown experiments for comparison. Binding data on FU97 cells (FIG. 2A) emphasizes the range of binding affinities for huGPC3 of the selected anti-GPC3 arms of the invention, P44 and P30. Both P44 and P30 arms are binding to membrane distal domains within GPC3. Binding on CD3 positive Jurkat cells highlight how these two CD28×GPC3 bispecific antibodies sharing the same anti-CD28 arm (e.g. AI3) bind similarly to CD28 positive cells (FIG. 2B).

T1 sequence (P10747 19-220): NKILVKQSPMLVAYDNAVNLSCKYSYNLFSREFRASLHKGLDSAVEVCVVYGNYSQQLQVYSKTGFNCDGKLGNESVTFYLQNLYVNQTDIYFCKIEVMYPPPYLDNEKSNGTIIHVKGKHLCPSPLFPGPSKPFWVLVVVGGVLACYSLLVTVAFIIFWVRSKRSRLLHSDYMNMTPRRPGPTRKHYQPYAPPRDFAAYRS

binding result (human CD28 [1]): binds
B1: AI10 anti-CD28 bivalent mAb (antibody, V domains shown)
VH: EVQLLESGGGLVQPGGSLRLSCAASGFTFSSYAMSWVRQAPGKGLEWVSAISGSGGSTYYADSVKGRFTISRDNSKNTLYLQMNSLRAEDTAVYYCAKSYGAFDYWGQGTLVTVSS
VL: DIVMTQTPLSLSVTPGQPASISCKSSGDLLEFAGKTYLYWYLQKPGQPPQLLIYEVSNRFSGVPDRFSGSGSGTDFTLKISRVEAEDVGVYYCMQAHGSKIGFTFGQGTKVEIK

binding result (human CD28 [2]): binds
B2: AI3P44/N (bispecific antibody, human IgG1, kappa, lambda, L234A L235A)
heavy: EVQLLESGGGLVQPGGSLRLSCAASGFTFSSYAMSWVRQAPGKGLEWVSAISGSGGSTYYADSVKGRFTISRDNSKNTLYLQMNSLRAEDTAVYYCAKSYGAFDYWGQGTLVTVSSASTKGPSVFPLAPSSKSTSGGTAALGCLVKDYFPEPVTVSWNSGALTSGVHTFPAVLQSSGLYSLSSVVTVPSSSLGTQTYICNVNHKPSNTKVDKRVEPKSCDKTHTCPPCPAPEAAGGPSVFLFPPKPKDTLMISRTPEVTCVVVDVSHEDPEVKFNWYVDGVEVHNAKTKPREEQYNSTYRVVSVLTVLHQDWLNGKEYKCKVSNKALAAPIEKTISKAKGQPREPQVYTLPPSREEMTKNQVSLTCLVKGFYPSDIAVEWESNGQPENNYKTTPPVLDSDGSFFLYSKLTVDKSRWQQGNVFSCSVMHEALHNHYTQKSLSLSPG
light 1: not shown
light 2: NFMLTQPHSVSESPGKTVTISCTRSSGSISYDDVQWYQQRPGSSPTTVIYFNNLRPSGVPDRFSGSIDSSSNSASLTISGLKTEDEADYYCQSWDLRHRVFGGGTKLTVLGQPKAAPSVTLFPPSSEELQANKATLVCLISDFYPGAVTVAWKADSSPVKAGVETTTPSKQSNNKYAASSYLSLTPEQWKSHRSYSCQVTHEGSTVEKTVAPTECS
notes: also called GPC3×CD28 bispecific antibody; GPC3×CD28 κλ-body

binding result (human CD28 [2]): binds
B3: AI10P44/N (bispecific antibody, human IgG1, kappa, lambda, L234A L235A)
heavy: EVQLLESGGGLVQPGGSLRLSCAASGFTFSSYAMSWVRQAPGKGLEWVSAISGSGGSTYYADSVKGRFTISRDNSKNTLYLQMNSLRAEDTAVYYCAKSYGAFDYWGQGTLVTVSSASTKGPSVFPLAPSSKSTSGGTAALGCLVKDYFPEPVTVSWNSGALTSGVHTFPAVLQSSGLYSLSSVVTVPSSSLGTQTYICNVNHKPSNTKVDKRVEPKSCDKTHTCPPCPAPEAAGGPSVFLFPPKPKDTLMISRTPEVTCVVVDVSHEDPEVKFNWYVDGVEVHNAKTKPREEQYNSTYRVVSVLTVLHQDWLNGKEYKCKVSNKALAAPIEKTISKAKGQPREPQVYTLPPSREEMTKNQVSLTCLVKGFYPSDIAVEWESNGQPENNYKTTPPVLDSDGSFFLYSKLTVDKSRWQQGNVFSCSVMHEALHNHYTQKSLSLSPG
light 1: DIVMTQTPLSLSVTPGQPASISCKSSGDLLEFAGKTYLYWYLQKPGQPPQLLIYEVSNRFSGVPDRFSGSGSGTDFTLKISRVEAEDVGVYYCMQAHGSKIGFTFGQGTKVEIKRTVAAPSVFIFPPSDEQLKSGTASVVCLLNNFYPREAKVQWKVDNALQSGNSQESVTEQDSKDSTYSLSSTLTLSKADYEKHKVYACEVTHQGLSSPVTKSFNRGEC
light 2: B2 light 2
notes: also called AI10-containing bispecific antibody; GPC3×CD28 bispecific antibody

binding result (human CD28 [2]): binds
B4: AI3P30/N (bispecific antibody, human IgG1, kappa, lambda, L234A L235A)
heavy: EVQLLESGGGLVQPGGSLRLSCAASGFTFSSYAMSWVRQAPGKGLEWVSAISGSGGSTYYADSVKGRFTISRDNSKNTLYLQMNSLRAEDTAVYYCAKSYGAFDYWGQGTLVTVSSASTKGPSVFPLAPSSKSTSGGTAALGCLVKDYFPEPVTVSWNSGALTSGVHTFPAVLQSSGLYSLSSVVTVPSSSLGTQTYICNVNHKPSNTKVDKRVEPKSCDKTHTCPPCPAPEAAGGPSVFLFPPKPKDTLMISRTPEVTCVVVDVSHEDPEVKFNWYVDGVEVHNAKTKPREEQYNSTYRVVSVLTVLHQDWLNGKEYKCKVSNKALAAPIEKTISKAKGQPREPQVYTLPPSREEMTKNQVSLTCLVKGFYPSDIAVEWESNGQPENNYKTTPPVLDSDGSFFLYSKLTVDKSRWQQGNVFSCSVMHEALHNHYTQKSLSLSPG
light 1: not shown
light 2: QSALTQPASVSGSPGQSITISCTGTSSDVPEDALVSWYQQHPGKAPKLMIYYDSTRPSGVSNRFSGSKSGNTASLTISGLQAEDEADYYCSSWDFGTGSKVFGGGTKLTVLGQPKAAPSVTLFPPSSEELQANKATLVCLISDFYPGAVTVAWKADSSPVKAGVETTTPSKQSNNKYAASSYLSLTPEQWKSHRSYSCQVTHEGSTVEKTVAPTECS
notes: also called GPC3×CD28 bispecific antibody

— patent US20230287146A1 (LAMKAP BIO GAMMA, published 2023)
